Data set [1] concerns the target T1, LmGAPDH (glyceraldehyde-3-phosphate dehydrogenase) (Leishmania major (strain 5ASKH), UniProt Q4Q6Z5 1-361). As to the kind of experiment: EMSA; no complex also at higher LmGAPDH concentrations. To be noted: protein: recombinant; tags: His tag (pET15B NdeI/BamHI, Ni-NTA); chain copies: 4; label: 3' biotin; single strand. (In general: Mobility shift assays separate free from complexed probe on a gel.)

In data set [2] the target is T1, LmGAPDH (glyceraldehyde-3-phosphate …). As to the kind of experiment: EMSA; concentration dependent; supershift with anti-LmGAPDH. To be noted: protein: recombinant; tags: His tag (pET15B NdeI/BamHI, Ni-NTA); chain copies: 4; label: 3' biotin; single strand.
Data set [3] shares this target. In words: competition; about 200-fold excess unlabeled RNA competes with labeled N1. To be noted: protein: recombinant; tags: His tag (pET15B NdeI/BamHI, Ni-NTA); chain copies: 4; label: none; single strand.

The values below come from paper PMC8502904, “Glyceraldehyde-3-phosphate dehydrogenase present in extracellular vesicles from Leishmania major suppresses host TNF-alpha expression”.

Take AGAACAUCUUGGAAAUAGCUCCCAGAAAAGCAAGCAGC (ssRNA) [TNF-alpha 5'-UTR oligonucleotide]: in data set [1], the binding result is recorded as “no binding”.

Turning to GUGAUUAUUUAUUAUUUAUUUAUUAUUUAUUUAUUUAG (ssRNA) [TNF-alpha 3'-UTR ARE38], in data set [2], the binding result was “binds”.

For the molecule GUGAUUAUUUAUUAUUUAUUUAUUAUUUAUUUAUUUAG (ssRNA) [TNF-alpha 3'-UTR ARE38, unlabeled competitor], in data set [3], the binding result is “binds”.
